We go through one substance from patent US7060284.

The target of this test is HER-2 protein (human p185 HER-2 receptor) (human) (UniProt P04626). Nature of the test: flow cytometry on SKBR3 cells, control sample. Background: In flow cytometry, cells or beads pass a laser one at a time.

On to negative control sera (antibody), for which the Mean Cell Fluorescence was 0.647.
